Positions count from the first letter of the chain named.

Ten molecules from patent publication US20180208675A1 (Novo Nordisk, published 2018) can be followed below.

The target in assay [1] is endogenous TFPI of normal human plasma (human, UniProt P10646 29-304, limits assumed). The experiment in a line: cell-based or functional assay.
For assay [2], the target named is T1, human TFPI alpha (full-length TFPIα) (human, UniProt P10646 29-304). Nature of the assay: cell-based or functional assay.
Assay [3] has as its target T1, human TFPI alpha (full-length TFPIα). The experiment in a line: SPR (Biacore T200), Fab captured on Human Fab Binder, TFPIα in solution, 1:1 fit.
Excerpt: Binding interaction analysis was obtained by Surface Plasmon Resonance in a Biacore T200 instrument. Human Fab Binder (Human Fab Capture Kit, GE Healthcare) was immobilized to a series S CM4 sensor chip (GE Healthcare) in flow-cells 1-4 at 10000 response units (RU) using the amine coupling protocol available within the Biacore T-200 control software (GE Healthcare) and the reagents provided with the Amine Coupling Kit (GE Healthcare).The relevant Fab fragment or Fab-Fab conjugate was captured in flow-cell 2, 3 or 4 at a fixed concentration. Different concentrations of TFPI were tested by diluting TFPI in the running buffer (10 mM Hepes, pH 7.4, 300 mM NaCl, 5 mM CaCl₂, 0.05% Surfactant P20, 1 mg/ml BSA). Each sample was assayed using 300 seconds of contact time followed by 600 seconds of dissociation time at 50 μl/min flow rate. A buffer blank was also assayed. The sensor surface was regenerated with 10 mM Glycine pH 2.1 with two cycles each of 30 seconds at 50 μl/min flow rate.
Biacore T200 Evaluation software was used to analyse the data. Determination of binding constants (kₒₙ, koff, KD) was obtained assuming a 1:1 interaction of TFPI and the Fab variant or Fab-Fab conjugate of interest.
Assay [4] has the same target. The experiment in a line: cell-based or functional assay. The source holds these as a separate data set.

B1: mAb 2021 (antibody, human IgG4 S228P, kappa, V domains shown)
VH: EVQLVESGGGLVKPGGSLRLSCAASGFTFSNYAMSWVRQTPEKRLEWVATISRSGSYSYFPDSVQGRFTISRDNAKNSLYLQMNSLRAEDTAVYYCARLGGYDEGDAMDSWGQGTTVTVSS
VL: DIVMTQTPLSLSVTPGQPASISCKSSQSLLESDGKTYLNWYLQKPGQSPQLLIYLVSILDSGVPDRFSGSGSGTDFTLKISRVEAEDVGVYYCLQATHFPQTFGGGTKVEIKR
In the case of B1, in assay [1], the “thrombin peak (nM) at 6.25 nM, FVIII-neutralised plasma, endogenous TFPI” value was found to be 113 nM; the “thrombin peak (nM) at 12.5 nM, FVIII-neutralised plasma, endogenous TFPI” value was determined as 114 nM; the “thrombin peak (nM) at 25.0 nM, FVIII-neutralised plasma, endogenous TFPI” value was found to be 116 nM; the “thrombin peak (nM) at 50.0 nM, FVIII-neutralised plasma, endogenous TFPI” value amounted to 118 nM. Besides, the “thrombin peak (nM) at 100 nM, FVIII-neutralised plasma, endogenous TFPI” value in assay [1] is 118 nM. In assay [2], the “thrombin peak (nM) at 6.25 nM, FVIII-neutralised plasma + 2 nM TFPIα” value came to 48.9 nM; the “thrombin peak (nM) at 12.5 nM, FVIII-neutralised plasma + 2 nM TFPIα” value came out at 61.7 nM; the “thrombin peak (nM) at 25.0 nM, FVIII-neutralised plasma + 2 nM TFPIα” value turned out to be 68.4 nM; the “thrombin peak (nM) at 50.0 nM, FVIII-neutralised plasma + 2 nM TFPIα” value turned out to be 73.4 nM. In addition, the “thrombin peak (nM) at 100 nM, FVIII-neutralised plasma + 2 nM TFPIα” value in assay [2] worked out at 58.6 nM.

B2: Fab 0094 (Fab fragment of mAb 2007) (Fab, V domains shown)
VH: B1 VH with T40A, E42G, R44G, A49S, F60Y, Q65K
VL: B1 VL
notes: KPI-2 specific
Take B2: in assay [1], the “thrombin peak (nM) at 6.25 nM, FVIII-neutralised plasma, endogenous TFPI” value came out at 35.9 nM; the “thrombin peak (nM) at 12.5 nM, FVIII-neutralised plasma, endogenous TFPI” value amounted to 45 nM; the “thrombin peak (nM) at 25.0 nM, FVIII-neutralised plasma, endogenous TFPI” value came to 60.2 nM; the “thrombin peak (nM) at 50.0 nM, FVIII-neutralised plasma, endogenous TFPI” value turned out to be 73.9 nM. The “thrombin peak (nM) at 100 nM, FVIII-neutralised plasma, endogenous TFPI” value in assay [1] came to 74.1 nM. For the same molecule, in assay [2], the “thrombin peak (nM) at 6.25 nM, FVIII-neutralised plasma + 2 nM TFPIα” value worked out at 5.9 nM; the “thrombin peak (nM) at 12.5 nM, FVIII-neutralised plasma + 2 nM TFPIα” value turned out to be 10.6 nM; the “thrombin peak (nM) at 25.0 nM, FVIII-neutralised plasma + 2 nM TFPIα” value came out at 14.3 nM; the “thrombin peak (nM) at 50.0 nM, FVIII-neutralised plasma + 2 nM TFPIα” value was determined as 18.9 nM. Further, the “thrombin peak (nM) at 100 nM, FVIII-neutralised plasma + 2 nM TFPIα” value in assay [2] worked out at 20.3 nM. In assay [3], the Kd came out at 4.4 nM, the koff came out at 0.00066 s⁻¹ and the kon came out at 150000 M⁻¹ s⁻¹.

B3: Fab 0313 (Fab fragment of mAb 2000) (Fab, V domains shown)
VH: B1 VH with T40A, E42G, R44G, A49S, F60Y, P61A, Q65K
VL: B1 VL
notes: Fab of the initial grafted HzTFPI4F36; KPI-2 specific
As for B3, in assay [3], binding was put at a Kd of 42 nM, the koff amounted to 0.0021 s⁻¹ and the on-rate (kon) worked out at 49000 M⁻¹ s⁻¹.

B4: mAb 4F110 (antibody, human IgG4 S228P, kappa, V domains shown)
VH: QVQLQQSGAELVKPGASVKLSCKASGYTFISYYMYWVKQRPGQGLEWIGEINPSNGDTNLNEKFKSKATLTVDKSSSTVYMQLSSLTSEDSAVYYCTRWDRFDGFVYWGQGTLVTVSA
VL: ETTVTQSPASLSMAIGGKVTIRCIISTNIDDDINWYQQKPGEPPKLLISEGNTLRPGVPSRFSSSGYGTDFVFTIENMLSEDVADYYCLQSDDLPYTFGGGTKLEIKR
For B4, in assay [4], the “lag time (min), 200 nM mAb (2 x 100 nM), FVIII-neutralised plasma + 20 nM TFPIα” value (from here on “lag time (min), 200 nM mAb (2 x 100 nM)”) was found to be 0 min; the “thrombin peak (nM), 200 nM mAb (2 x 100 nM), FVIII-neutralised plasma + 20 nM TFPIα” value (“thrombin peak (nM), 200 nM mAb” for short) was determined as 0 nM; the “ttPeak (min), 200 nM mAb (2 x 100 nM), FVIII-neutralised plasma + 20 nM TFPIα” value (“ttPeak (min), 200 nM mAb (2 x 100 nM)” for short) was determined as 0 min.

B5: Fab 0089 (Fab fragment of mAb 4F110) (Fab, V domains shown)
VH: B4 VH
VL: B4 VL
notes: Chimeric mouse/human Fab; HC truncated after the hinge cysteine; KPI-3 specific
Take B5: in assay [3], the Kd is 0.11 nM, the koff is 0.00057 s⁻¹ and the on-rate (kon) was 5e+06 M⁻¹ s⁻¹.

B6: mAb 2F3 (antibody, V domains shown)
VH: QVQLKQSGPGLVQPSQSLSITCTVSGFSLSSYGVHWVRQSPGKGLEWLGVIWRGGSTDFNAAFMSRVSFTKDNSKSQVFFKMNSLQADDTAIYYCAKNSHGNYVGYAMDYWGQGTSVTVSS
VL: DIVMTQSQKFMSTTVGDKVSIPCKASENVGAAVAWYQQKPGQSPTLLIYSASNRYTGIPDRFTGSGSGTDFTLTIRTVQSEDLADYFCQQYTNYPTFGGGTKLEIKR
On to B6, for which, in assay [4], the “lag time (min), 200 nM mAb (2 x 100 nM)” value is 5.8 min; the “thrombin peak (nM), 200 nM mAb” value was 20.9 nM; the “ttPeak (min), 200 nM mAb (2 x 100 nM)” value worked out at 14.6 min.

B7: mAb 2F22 (antibody, V domains shown)
VH: B6 VH with S30T, S31N, G49A, T57I, F59Y, V67L, F69I
VL: GIVMTQSQKFMSTTVGDRVSITCKASQSVGPAVAWYQQKPGQSPKLLIYSASNRYTGVPDRFTGSGSGADFTLTISNLHSEDLADYFCQQYTSYPTFGGGTKLEIKR
For the molecule B7, in assay [4], the “lag time (min), 200 nM mAb (2 x 100 nM)” value was found to be 5.1 min; the “thrombin peak (nM), 200 nM mAb” value is 23.7 nM; the “ttPeak (min), 200 nM mAb (2 x 100 nM)” value was 13.6 min.

B8: mAb 2F45 (antibody, V domains shown)
VH: B6 VH with T21S, S30T, S31G, V37I, T57I, F59Y, V67L, F69I
VL: B7 VL with G1D, S28N, P31T, K45E, G57R, A69T, L78M, H79Q
Regarding B8, the “lag time (min), 200 nM mAb (2 x 100 nM)” value in assay [4] was found to be 9 min.

B9: mAb 1F91 (antibody, V domains shown)
VH: DVQLQESGPGLVKPSQSLSLTCTVSGYSITSDYAWNWIRQFPGNKLEWMGYISYSGSTSYNPSLKSRISITRDTSKNQFFLQLNSVTTEDTATYYCARWAYDGPWGQGTLVTVSA
VL: QIVLSQSPALLSASPGEKVTMTCRASSSVSHMHWYQQKPGSSPKPWIYATSNLASGVPARFSGSGSGTSYSLTITRVEAEDAATYYCQQWSSNPFTFGSGTKLEIKR
Turning to B9, in assay [4], the “lag time (min), 200 nM mAb (2 x 100 nM)” value came out at 0 min; the “thrombin peak (nM), 200 nM mAb” value came out at 0 nM; the “ttPeak (min), 200 nM mAb (2 x 100 nM)” value turned out to be 0 min.

B10: mAb 2F35 (antibody, V domains shown)
VH: EVQLQQSGAELVRPGALVKLSCKASGFNIKDYYIHWVKQRPEQGLEWIGWIDPENGNTIFDPKFQGRASITADTSSNTAYLQLSSLTSEDTAVYYCAGRWYAMDYWGQGTSVTVSS
VL: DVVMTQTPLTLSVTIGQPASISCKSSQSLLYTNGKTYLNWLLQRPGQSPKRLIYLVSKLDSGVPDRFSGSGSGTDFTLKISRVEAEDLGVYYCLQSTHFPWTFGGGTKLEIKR
Regarding B10, in assay [4], the “lag time (min), 200 nM mAb (2 x 100 nM)” value is 0 min; the “thrombin peak (nM), 200 nM mAb” value was 0 nM; the “ttPeak (min), 200 nM mAb (2 x 100 nM)” value came out at 0 min.

The Kd is the constant that tells how readily two partners part at equilibrium. A higher Kd goes with a looser complex. In general, koff refers to the first-order rate constant of dissociation. Low values mean a long-lived complex, high ones a short-lived complex. The kon is a measure of how fast the partners come together.
